Assay results as given in the supplement of paper PMC9112550, “Optimization of the antimicrobial peptide Bac7 by deep mutational scanning” (BMC Biology, 2022).

Test system: Escherichia coli TOP10
Assay: shrunken log2 fold change of peptide-encoding DNA abundance (4.5 h post-induction vs induction); higher = less antimicrobial activity (less host growth inhibition)
Conditions: time post-induction: 4.5 h; library: site-saturation at positions 5, 18, 19, 20
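Note: peptides expressed intracellularly from a pBAD plasmid library in pooled LB shake-flask culture, induced with 0.3% L-arabinose, DNA abundance read by NGS, three biological replicates, DESeq2 with apeglm shrinkage.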

Sequence | shrunken log2 fold change
RRIRARPPRLPRPRPRPCPNPRP | -0.0809
RRIRARPPRLPRPRPRPCPYPRP | -0.359
RRIRARPPRLPRPRPRPCQKPRP | 0.431
RRIRARPPRLPRPRPRPCSLPRP | -0.272
RRIRARPPRLPRPRPRPCWCPRP | 0.721
RRIRARPPRLPRPRPRPCWDPRP | -0.102
RRIRARPPRLPRPRPRPCWFPRP | 0.107
RRIRARPPRLPRPRPRPCYCPRP | -0.0765
RRIRARPPRLPRPRPRPDAYPRP | 0.522
RRIRARPPRLPRPRPRPDCAPRP | 0.826
RRIRARPPRLPRPRPRPDCEPRP | 1
RRIRARPPRLPRPRPRPDCIPRP | 0.446
RRIRARPPRLPRPRPRPDCWPRP | 1.21
RRIRARPPRLPRPRPRPDDAPRP | 0.138
RRIRARPPRLPRPRPRPDDMPRP | 0.371
RRIRARPPRLPRPRPRPDETPRP | 0.00253
RRIRARPPRLPRPRPRPDFRPRP | 0.0149
RRIRARPPRLPRPRPRPDFYPRP | 0.0576
RRIRARPPRLPRPRPRPDGDPRP | -0.036
RRIRARPPRLPRPRPRPDGNPRP | -0.0344
RRIRARPPRLPRPRPRPDGSPRP | 0.0886
RRIRARPPRLPRPRPRPDIHPRP | 0.145
RRIRARPPRLPRPRPRPDIIPRP | 0.363
RRIRARPPRLPRPRPRPDKEPRP | 0.0435
RRIRARPPRLPRPRPRPDKIPRP | 0.299
RRIRARPPRLPRPRPRPDKNPRP | -0.00427
RRIRARPPRLPRPRPRPDLIPRP | 0.235
RRIRARPPRLPRPRPRPDLNPRP | 0.473

Sequence | shrunken log2 fold change
RRIRARPPRLPRPRPRPDMSPRP | 0.0274
RRIRARPPRLPRPRPRPDNFPRP | -0.294
RRIRARPPRLPRPRPRPDQEPRP | 0.0233
RRIRARPPRLPRPRPRPDSAPRP | 0.608
RRIRARPPRLPRPRPRPDTEPRP | 0.00829
RRIRARPPRLPRPRPRPDTIPRP | 0.103
RRIRARPPRLPRPRPRPDYEPRP | 0.00147
RRIRARPPRLPRPRPRPDYTPRP | -0.312
RRIRARPPRLPRPRPRPDYVPRP | 0.353
RRIRARPPRLPRPRPRPEASPRP | 1.19
RRIRARPPRLPRPRPRPEDWPRP | 1.63
RRIRARPPRLPRPRPRPEESPRP | -0.024
RRIRARPPRLPRPRPRPEEYPRP | -0.0897
RRIRARPPRLPRPRPRPEFPPRP | 0.962
RRIRARPPRLPRPRPRPEHYPRP | 0.068
RRIRARPPRLPRPRPRPEKCPRP | -0.15
RRIRARPPRLPRPRPRPEKTPRP | 0.38
RRIRARPPRLPRPRPRPELSPRP | 0.0862
RRIRARPPRLPRPRPRPEMDPRP | 0.41
RRIRARPPRLPRPRPRPEMHPRP | 1.1
RRIRARPPRLPRPRPRPENGPRP | -0.0341
RRIRARPPRLPRPRPRPENIPRP | -0.251
RRIRARPPRLPRPRPRPEPLPRP | 0.284
RRIRARPPRLPRPRPRPEQAPRP | 0.759
RRIRARPPRLPRPRPRPERAPRP | 0.845
RRIRARPPRLPRPRPRPERIPRP | 0.155
RRIRARPPRLPRPRPRPERSPRP | 0.264
